This experiment deals with T1, eIF4E (mouse, endogenous in Pten^L/L prostate tissue) (mouse, UniProt P63073 2-217).
T1 construct: Endogenous protein in mouse prostate tumor tissue, detected with an antibody (SCBT) in a proximity ligation assay; also called eIF4E translation initiation factor; eukaryotic translation initiation factor 4E
Put plainly: in situ proximity ligation assay on castrate vs intact Pten^L/L mouse prostate tumors; confirmed by m7GTP cap-binding assay. How it is done: Flash frozen intact and castrate Pten^{L/L} ventral prostates dissected from each animal or from AR+ parental and AR− APIPC tumors were pulverized with mortar and pestle in appropriate volumes of lysis buffer containing 10 mM Tris/HCL pH 7.6, 140 mM KCl, 4 mM MgCl₂, 1 mM DTT, 1 mM EDTA, 1% Nonidet P-40 supplemented with phosphatase and protease inhibitor cocktails (Roche) and lysed for 30 min on ice. Lysates were cleared by centrifugation at 12000 rpm for 25 min at 4° C. Supernatants were collected and assayed for protein concentration using the Protein Assay Dye Reagent (Bio-Rad). 250 μg of protein were incubated rotating with 50 μl of γ-aminophenyl-m7GTP (C10-spacer)-agarose beads (Jena Bioscience) in lysis buffer without Nonidet P-40 at 4° C. overnight. After two washes in lysis buffer containing 0.5% Nonidet P-40 and two washes in PBS, beads were re-suspended in 60 μl of 1×SDS loading buffer and boiled for 5 min. Thirty microliters of boiled lysates were western blotted for eIF4G, eIF4E, and 4EBP1.
To test this hypothesis, proximity ligation assays (PLA) for eIF4E-eIF4G interactions and eIF4E-4EBP1 interactions were optimized (FIG. 2A). […] This was also confirmed by the cap-binding assay (FIG. 11A). […]

T1 sequence (P63073 2-217 limits assumed): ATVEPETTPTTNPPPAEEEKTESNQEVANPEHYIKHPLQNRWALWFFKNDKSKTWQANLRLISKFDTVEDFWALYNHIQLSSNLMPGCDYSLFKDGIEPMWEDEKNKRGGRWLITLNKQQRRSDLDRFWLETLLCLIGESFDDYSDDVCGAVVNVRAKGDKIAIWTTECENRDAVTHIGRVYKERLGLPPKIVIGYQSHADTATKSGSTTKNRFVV

B1: 4EBP1 (mouse, endogenous in Pten^L/L prostate tissue) (other, UniProt Q60876 2-117, looked up)
chain: SAGSSCSQTPSRAIPTRRVALGDGVQLPPGDYSTTPGGTLFSTTPGGTRIIYDRKFLMECRNSPVAKTPPKDLPAIPGVTSPTSDEPPMQASQSQLPSSPEDKRAGGEESQFEMDI
notes: Endogenous protein
As to B1, the binding result is recorded as “binds”.

(Values after patent US20220249439A1 (FRED HUTCHINSON CANCER RESEARCH CENTER, published 2022).)
